We go through two compounds from paper PMC5905287, “Synthesis and in vitro biochemical evaluation of oxime bond-linked daunorubicin–GnRH-III conjugates developed for targeted drug delivery” (Beilstein Journal of Organic Chemistry, 2018).

The subject of series [1] is MCF-7 human breast cancer cell line. The series is described as follows: In vitro cytostatic effect, alamarBlue assay, MCF-7. In kind it is cell-based. From the text:
Cell lines often function as the first model system of choice to study biological processes or to test the efficiency of drugs or drug conjugates and their cytotoxic effects. Immortal cell lines offer various benefits, for instance they are easy to handle, cost-effective and provide consistent sample and reproducible results. Nevertheless, cell lines also present the disadvantage that after a period of continuous growth, cell characteristics can change and dedifferentiate in culture. The serial passaging can cause genotypic and phenotypic variations and the state of confluency can also affect gene expression pattern in some cell lines. Due to this, the usage of internal standards during the evaluation of new potential candidates might be necessary to ensure comparability with previous results. The cytostatic effect of the novel GnRH-III bioconjugates was determined on HT-29 human colon cancer and MCF-7 human breast cancer cell lines by alamarBlue® assay. For a better comparison, the well-studied bioconjugates GnRH-III–[^8Lys(Dau=Aoa)] (K1) and GnRH-III–[^4Lys(Bu), ^8Lys(Dau=Aoa)] (K2) were used as positive controls and internal standards. The corresponding IC50 values were calculated by using nonlinear regression (sigmoidal dose response) (Figure 3, Table 2). Unfortunately, the D-Trp containing compounds 3 and 6 started to precipitate in both cell culture media at higher concentrations limiting the concentration down to a maximum of 10 µM. This effect could not be prevented by using DMSO instead of ddH2O for the preparation of the stock solutions. Unfortunately, the lower concentration range with a maximum of 10 µM was not sufficient to achieve the dose-response. […] Nevertheless, the replacement of ^6Asp by D-Asp, D-Glu or D-Trp led to a decreased cytostatic effect on the estimated cancer cell lines.
MCF-7 human breast adenocarcinoma cells were cultured in Dulbecco’s Modified Eagle Medium (DMEM, Lonza, Basel, Switzerland), supplemented with 10% (v/v) fetal bovine serum (FBS, Lonza), L-glutamine (2 mM, Lonza), non-essential amino acids (NEAA, Sigma-Aldrich Kft), sodium pyruvate (1 mM, Lonza) and penicillin-streptomycine (Lonza). […]
Cells were seeded to 96-well plates (Sarstedt, Nümbrecht, Germany, 5 × 10^3 cells/well) one day prior to the treatment in complete cell medium. […] Fluorescence was detected using Synergy H4 multi-mode microplate reader (BioTek, Winooski, VT, USA), excitation and emission wavelengths were set to 570 and 620 nm, respectively. Cytostasis was measured using 4 parallels, each experiment was repeated twice. Cytostatic effect (and IC50 values) were calculated by using nonlinear regression (sigmoidal dose response) with Origin Pro8 (OriginLab Corp., Northampton, MA, USA.).
(Alamar Blue is a resazurin reagent that responds to reducing activity.)

Series [2] can be described thus: Degradation in rat liver lysosomal homogenate (LC-MS). The series is classed as in vitro ADME. To be noted: for incubation time after which the smallest Dau-containing metabolite H-Lys(Dau=Aoa)-OH was detected: pH 5. On the procedure: In order to gain insight into the cellular release of the drug, the degradation of the Dau–GnRH-III derivatives 1–6, K1 and K2 was determined in the presence of rat liver lysosomal homogenate at 37 °C. […] However, the degradation level and the cleavage sites within the GnRH-III sequence differ considerably depending on the incorporated amino acids, whereby the hydrolyses of the C-terminus (H-Gly-NH2 and H-Pro-Gly-NH2) occurred first in all eight GnRH-III derivatives. Due to the high chemical and enzymatic stability of the oxime bond, no free Dau was detected by LC–MS. In accordance with our previous results, the digestion of the two peptides containing L-Asp in position 6 (K1, K2) provided the smallest Dau-containing metabolite (H-Lys(Dau=Aoa)-OH, m/z 729.36 [M + H]^+). This metabolite could already be detected after 1 hour of incubation in case of K2 and after 2 hours in case of K1. […] It might be assumed that D-Trp of GnRH-III–[^4Lys(Bu), ^6D-Tpr, ^8Lys(Dau=Aoa)] (6) is also accepted at the cleavage site, but due to the prior hydrolysis of the ^7Trp-^8Lys(Dau=Aoa)-bond an evidential fragment has not been detected. A reason for these diversities might be the subsite specificities of the lysosomal proteases. For instance, lysosomal cysteine proteases also known as cathepsins show a broad substrate specificity. […] For instance, the analyzed fragments of the ^6L-Asp derivatives gave clear hints for the presence of endopeptidases, while the digestion of the ^6D-Aaa compounds 1–3 gave only fragments which evidence the activity of exomono- and/or dipeptidases. Moreover, the obtained results for the bioconjugates that contain ^4Lys(Bu) (K2, 4–6) instead of serine indicate a proteolytic cleavage by lysosomal endopeptidases, which might be of great importance for the release of the smallest Dau-containing metabolite.
The rat liver lysosomal homogenate was prepared as previously described. The protein concentration was determined by Qubit Protein Assay Kit according to the manufacturer’s protocol (ThermoFisher Scientific, Waltham, MA, USA). The bioconjugates were dissolved in ddH2O to a concentration of 5 µg/µL. The reaction was carried out in 0.2 M NaOAc buffer (pH 5), with an identical concentration of bioconjugate and rat liver lysosomal homogenate (0.25 µg/µL). The reaction mixtures were incubated at 37 °C and aliquots of 15 µL were taken at 5 min, 1 h, 2 h, 4 h, 8 h and 24 h and quenched with 2 µL of acetic acid. The analysis of the samples was performed by LC–MS.

Where two headings read alike, the source gives them in different places. Non-standard residues stand in square brackets, D forms with d. Residues, ends and D or L forms follow the SMILES beside them. *: point of attachment. Daunorubicin(13-NOCH2CO) = COc1cccc2c1C(=O)c1c(O)c3c(c(O)c1C2=O)C[C@@](O)(C(C)=NOCC(=O)*)C[C@@H]3O[C@H]1C[C@H](N)[C@H](O)[C@H](C)O1; pGlu = O=C1CC[C@@H](C(=O)O)N1; Butyryl = CCCC(=O)*

Regarding `COc1cccc2c1C(=O)c1c(O)c3c(c(O)c1C2=O)C[C@@](O)(C(C)=NOCC(=O)NCCCC[C@H](NC(=O)[C@H](Cc1c[nH]c2ccccc12)NC(=O)[C@@H](CCC(=O)O)NC(=O)[C@H](Cc1c[nH]cn1)NC(=O)[C@H](CO)NC(=O)[C@H](Cc1c[nH]c2ccccc12)NC(=O)[C@H](Cc1c[nH]cn1)NC(=O)[C@@H]1CCC(=O)N1)C(=O)N1CCC[C@H]1C(=O)NCC(N)=O)C[C@@H]3O[C@H]1C[C@H](N)[C@H](O)[C@H](C)O1` [compound 2, [6D-Glu, 8Lys(Dau=Aoa)]] ([pGlu]HWSH[dE]WK(Daunorubicin(13-NOCH2CO))PG-NH2), the 50% inhibitory concentration (IC50) (commonly the point on the concentration scale where inhibition reaches its midpoint) in series [1] (24 h) worked out at 6.8 ± 1 µM. In addition, the “incubation time after which the smallest Dau-containing metabolite H-Lys(Dau=Aoa)-OH was detected” value in series [2] came out at 24 h.

Turning to `CCCC(=O)NCCCC[C@H](NC(=O)[C@H](Cc1c[nH]c2ccccc12)NC(=O)[C@H](Cc1c[nH]cn1)NC(=O)[C@@H]1CCC(=O)N1)C(=O)N[C@@H](Cc1c[nH]cn1)C(=O)N[C@H](CCC(=O)O)C(=O)N[C@@H](Cc1c[nH]c2ccccc12)C(=O)N[C@@H](CCCCNC(=O)CON=C(C)[C@]1(O)Cc2c(O)c3c(c(O)c2[C@@H](O[C@H]2C[C@H](N)[C@H](O)[C@H](C)O2)C1)C(=O)c1c(OC)cccc1C3=O)C(=O)N1CCC[C@H]1C(=O)NCC(N)=O` [compound 5, [4Lys(Bu), 6D-Glu, 8Lys(Dau=Aoa)]] ([pGlu]HWK(Butyryl)H[dE]WK(Daunorubicin(13-NOCH2CO))PG-NH2), the concentration for half-maximal inhibition (IC50) in series [1] (24 h treatment, then 48 h in complete medium, alamarBlue, mean ± SE, read-out: MCF-7 IC50) was found to be 7 ± 1.2 µM. In addition, the “incubation time after which the smallest Dau-containing metabolite H-Lys(Dau=Aoa)-OH was detected” value in series [2] (rat liver lysosomal homogenate, 37 °C) was determined as 24 h. For the same compound, the “release of the smallest Dau-containing metabolite H-Lys(Dau=Aoa)-OH” value in series [2] (rat liver lysosomal homogenate, 37 °C, up to 24 h) is given as “identified in small amount”.
